Experimental data published in patent publication US20260022175A1 (Chugai, published 2026).

Legend:
[1] = molecular target: T1, human C1q protein (Calbiochem) (human, UniProt P02745 23-245; P02746 28-253; P02747 29-245); assay: ELISA, antibody on the plate, hC1q 3 µg/mL
T1 construct: bought; also called hC1q

[2] = molecular target: T2, hCTLA4-His-BAP (human CTLA4 extracellular region with C-terminal His-tag and BAP-tag) (human, biotin on the BAP-tag); assay: SPR 37C, ATP 10 µM; ATP 10 µM
T2 construct: also called hCTLA4-His-Biotin

[3] = molecular target: T2, hCTLA4-His-BAP (human CTLA4 …); assay: SPR 37C, ATP 100 µM; ATP 100 µM
[4] = molecular target: T2, hCTLA4-His-BAP (human CTLA4 …); assay: SPR 37C, hCTLA4 1000 nM, no ATP; no ATP; binding amount at 1000 nM hCTLA4
[5] = molecular target: T2, hCTLA4-His-BAP (human CTLA4 …); assay: SPR 37C, hCTLA4 1000 nM, ATP 1 µM; ATP 1 µM; binding amount at 1000 nM hCTLA4
[6] = molecular target: T2, hCTLA4-His-BAP (human CTLA4 …); assay: SPR 37C, hCTLA4 1000 nM, ATP 10 µM; ATP 10 µM; binding amount at 1000 nM hCTLA4
[7] = molecular target: T2, hCTLA4-His-BAP (human CTLA4 …); assay: SPR 37C, hCTLA4 1000 nM, ATP 100 µM; ATP 100 µM; binding amount at 1000 nM hCTLA4

T2 sequence (chain, as listed by the source limits assumed): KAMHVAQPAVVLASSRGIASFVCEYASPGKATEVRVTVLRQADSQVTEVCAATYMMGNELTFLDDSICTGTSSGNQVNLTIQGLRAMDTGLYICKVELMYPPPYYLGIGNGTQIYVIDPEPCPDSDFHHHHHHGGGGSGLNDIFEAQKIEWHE
T1 sequence (P02745 23-245 limits assumed, chain 1 of 3): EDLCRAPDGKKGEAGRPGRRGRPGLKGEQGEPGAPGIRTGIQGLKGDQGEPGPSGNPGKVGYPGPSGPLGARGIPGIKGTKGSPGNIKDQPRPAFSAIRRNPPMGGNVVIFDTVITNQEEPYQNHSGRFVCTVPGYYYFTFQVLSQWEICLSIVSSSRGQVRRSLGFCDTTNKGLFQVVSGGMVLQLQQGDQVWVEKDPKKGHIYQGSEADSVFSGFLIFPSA
T1 sequence (P02746 28-253 limits assumed, chain 2 of 3): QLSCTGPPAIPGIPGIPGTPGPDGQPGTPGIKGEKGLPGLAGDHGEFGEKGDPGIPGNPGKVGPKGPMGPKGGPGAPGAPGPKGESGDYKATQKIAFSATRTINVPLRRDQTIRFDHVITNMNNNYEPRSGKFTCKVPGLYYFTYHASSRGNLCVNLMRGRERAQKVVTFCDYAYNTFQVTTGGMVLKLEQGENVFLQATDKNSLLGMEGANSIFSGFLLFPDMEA
T1 sequence (P02747 29-245 limits assumed, chain 3 of 3): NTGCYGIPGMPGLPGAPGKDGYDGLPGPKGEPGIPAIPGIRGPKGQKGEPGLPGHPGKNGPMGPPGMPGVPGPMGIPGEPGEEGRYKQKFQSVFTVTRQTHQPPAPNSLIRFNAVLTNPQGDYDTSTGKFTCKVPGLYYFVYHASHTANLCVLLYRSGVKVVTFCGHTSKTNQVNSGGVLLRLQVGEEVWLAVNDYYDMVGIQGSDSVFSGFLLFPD

| Binder | binding result [1] | Kd [2] | Kd [3] | Binding to Human CTLA4 [4] | Binding to Human CTLA4 [5] | Binding to Human CTLA4 [6] | Binding to Human CTLA4 [7] |
| --- | --- | --- | --- | --- | --- | --- | --- |
| H240-Kn462/L73-k0//H240-Hl441/L73-k0 (antibody, also called EGL-ART5; ART5; copies: 1 + 1 + 2) heavy 1: QDQLVQSGAEVKKPGASVKVSCKASGFNIKDTYIQWVRQAPGQGLEWMGRIDPLRKQTKYREKFEGRVTITADTSTNTAYMELSSLRSEDTAVYYCVRSGREFDYWGQGTLVTVSSASTKGPSVFPLAPSSKSTSGGTAALGCLVKDYFPEPVTVSWNSGALTSGVHTFPAVLQSSGLYSLSSVVTVPSSSLGTQTYICNVNHKPSNTKVDKKVEPKSCDKTHTCPPCPAPEFQWGPMVFLFPPKPKDVLMISRTPEVTCVVVDVSDEEPEVKFNWYVDGVEVHNAKTKPREEQYNATYRVVSVLPVLHQDWLNGKEYKCKVSNDALPAPIEKTISKAKGQPREPQVCTLPPSRDELTKNQVSLWCLVKGFYPSDIAVEWESNGQPENNYKTTPPVLDSDGSFFLYSKLTVDKSRWQQGNVFSCSVMHEALHNHYTQKSLSLSP heavy 2: QDQLVQSGAEVKKPGASVKVSCKASGFNIKDTYIQWVRQAPGQGLEWMGRIDPLRKQTKYREKFEGRVTITADTSTNTAYMELSSLRSEDTAVYYCVRSGREFDYWGQGTLVTVSSASTKGPSVFPLAPSSKSTSGGTAALGCLVKDYFPEPVTVSWNSGALTSGVHTFPAVLQSSGLYSLSSVVTVPSSSLGTQTYICNVNHKPSNTKVDKKVEPKSCDKTHTCPPCPAPELLAGPSVFLFPPKPKDVLMISRTPEVTCVVVDVSHEEPEVKFNWYVDGVEVHNAKTKPREEQYNATYRVVSVLPVLHQDWLNGKEYKCKVSNDALPAPIEETISKAKGQPREPQVYTLPPSRCELTKNQVSLSCAVKGFYPSDIAVEWESNGQPENNYKTTPPVLDSDGSFFLVSKLTVDKSRWQQGNVFSCSVMHEALHNHYTQKSLSLSP light: DIQMTQSPSSLSASVGDRVTITCRASQDIHKYIAWYQQKPGQAPRLLIQYTSTLQPGVPSRFSGSGSGTDYTFTISSLQPEDIATYYCLQYEQLRTFGGGTKVEIKRTVAAPSVFIFPPSDEQLKSGTASVVCLLNNFYPREAKVQWKVDNALQSGNSQESVTEQDSKDSTYSLSSTLTLSKADYEKHKVYACEVTHQGLSSPVTKSFNRGEC | binds | – | – | – | – | – | – |
| H240-Kn461/L73-k0//H240-Hl443/L73-k0 (antibody, also called EGL-ART8; ART8; copies: 1 + 1 + 2) heavy 1: QDQLVQSGAEVKKPGASVKVSCKASGFNIKDTYIQWVRQAPGQGLEWMGRIDPLRKQTKYREKFEGRVTITADTSTNTAYMELSSLRSEDTAVYYCVRSGREFDYWGQGTLVTVSSASTKGPSVFPLAPSSKSTSGGTAALGCLVKDYFPEPVTVSWNSGALTSGVHTFPAVLQSSGLYSLSSVVTVPSSSLGTQTYICNVNHKPSNTKVDKKVEPKSCDKTHTCPPCPAPEFQWGPMVFLFPPKPKDVLMISRTPEVTCVVVDVSDEEPEVKFNWYVDGVEVHNAKTKPREEQYNATYRVVSVLPVLHQDWLNGKEYKCKVSNDALPAPEEKTISKAKGQPREPQVCTLPPSRDELTKNQVSLWCLVKGFYPSDIAVEWESNGQPENNYKTTPPVLDSDGSFFLYSKLTVDKSRWQQGNVFSCSVMHEALHNHYTQKSLSLSP heavy 2: QDQLVQSGAEVKKPGASVKVSCKASGFNIKDTYIQWVRQAPGQGLEWMGRIDPLRKQTKYREKFEGRVTITADTSTNTAYMELSSLRSEDTAVYYCVRSGREFDYWGQGTLVTVSSASTKGPSVFPLAPSSKSTSGGTAALGCLVKDYFPEPVTVSWNSGALTSGVHTFPAVLQSSGLYSLSSVVTVPSSSLGTQTYICNVNHKPSNTKVDKKVEPKSCDKTHTCPPCPAPELLAGPSVFLFPPKPKDVLMISRTPEVTCVVVDVSHEEPEVKFNWYVDGVEVHNAKTKPREEQYNATYRVVSVLPVLHQDWLNGKEYKCKVSNDALPAPEEETISKAKGQPREPQVYTLPPSRCELTKNQVSLSCAVKGFYPSDIAVEWESNGQPENNYKTTPPVLDSDGSFFLVSKLTVDKSRWQQGNVFSCSVMHEALHNHYTQKSLSLSP light: DIQMTQSPSSLSASVGDRVTITCRASQDIHKYIAWYQQKPGQAPRLLIQYTSTLQPGVPSRFSGSGSGTDYTFTISSLQPEDIATYYCLQYEQLRTFGGGTKVEIKRTVAAPSVFIFPPSDEQLKSGTASVVCLLNNFYPREAKVQWKVDNALQSGNSQESVTEQDSKDSTYSLSSTLTLSKADYEKHKVYACEVTHQGLSSPVTKSFNRGEC | binds | – | – | – | – | – | – |
| H240-Kn443/L73-k0//H240-Hl408/L73-k0 (antibody, also called EGL-ART3; ART3; copies: 1 + 1 + 2) heavy 1: QDQLVQSGAEVKKPGASVKVSCKASGFNIKDTYIQWVRQAPGQGLEWMGRIDPLRKQTKYREKFEGRVTITADTSTNTAYMELSSLRSEDTAVYYCVRSGREFDYWGQGTLVTVSSASTKGPSVFPLAPSSKSTSGGTAALGCLVKDYFPEPVTVSWNSGALTSGVHTFPAVLQSSGLYSLSSVVTVPSSSLGTQTYICNVNHKPSNTKVDKKVEPKSCDKTHTCPPCPAPEFQWGPMVFLFPPKPKDTLMISRTPEVTCVVVDVSDEEPEVKFNWYVDGVEVHNAKTKPREEQYNATYRVVSVLTVLHQDWLNGKEYKCKVSNDALPAPIEKTISKAKGQPREPQVCTLPPSRDELTKNQVSLWCLVKGFYPSDIAVEWESNGQPENNYKTTPPVLDSDGSFFLYSKLTVDKSRWQQGNVFSCSVMHEALHNHYTQKSLSLSP heavy 2: QDQLVQSGAEVKKPGASVKVSCKASGFNIKDTYIQWVRQAPGQGLEWMGRIDPLRKQTKYREKFEGRVTITADTSTNTAYMELSSLRSEDTAVYYCVRSGREFDYWGQGTLVTVSSASTKGPSVFPLAPSSKSTSGGTAALGCLVKDYFPEPVTVSWNSGALTSGVHTFPAVLQSSGLYSLSSVVTVPSSSLGTQTYICNVNHKPSNTKVDKKVEPKSCDKTHTCPPCPAPELLAGPSVFLFPPKPKDTLMISRTPEVTCVVVDVSHEEPEVKFNWYVDGVEVHNAKTKPREEQYNATYRVVSVLTVLHQDWLNGKEYKCKVSNDALPAPIEETISKAKGQPREPQVYTLPPSRCELTKNQVSLSCAVKGFYPSDIAVEWESNGQPENNYKTTPPVLDSDGSFFLVSKLTVDKSRWQQGNVFSCSVMHEALHNHYTQKSLSLSP light: DIQMTQSPSSLSASVGDRVTITCRASQDIHKYIAWYQQKPGQAPRLLIQYTSTLQPGVPSRFSGSGSGTDYTFTISSLQPEDIATYYCLQYEQLRTFGGGTKVEIKRTVAAPSVFIFPPSDEQLKSGTASVVCLLNNFYPREAKVQWKVDNALQSGNSQESVTEQDSKDSTYSLSSTLTLSKADYEKHKVYACEVTHQGLSSPVTKSFNRGEC | binds | – | – | – | – | – | – |
| 04H1077-G1m/04L1041-lam1 (antibody, human IgG1, lambda, V domains shown) VH: EVQLVESGGDLVKPGGGLRLSCAASGFTFSSRTMNWVRQAPGKGLEWVSSISTRSGYIYYAESVKGRFTISRDNAKNSLYLQMNSLRAEDTAVYYCARYGKREDMLWVFDYWGQGTLVTVSS VL: QSALTQPPSASGSPGQTVTISCDGPSTDVGDYNYVHWYQQHPGKAPKLMIYFTSKKPSGVPDRFSGSKSGNTASLTVSGLQAEDEADYFCSTYAAPLGPMFGGGTKLTVLG | – | 730 nM | 140 nM | 0.006 per unit amount of antibody | 0.023 per unit amount of antibody | 0.094 per unit amount of antibody | 0.172 per unit amount of antibody |
| 04H1207-G1m/04L1086-lam1 (antibody, human IgG1, lambda, V domains shown) VH: EVQLVESGGGLVKPGGSLRLSCAASGFTFSSKTMNWVRQAPGKGLEWVSSISTRSGYIYYAESVKGRFTISRDNAKNSLYLQMNSLRAEDTAVYYCARYGKREDMLWVFDYWGQGTLVTVSS VL: QSALTQPPSASGSPGQTVTISCDGPSTGVGDYNYVHWYQQHPGKAPKLMIYFTSKKPSGVPDRFSGSKSGNTASLTVSGLQAEDEADYFCQTYAAPLGPMFGGGTKLTVLG | – | 330 nM | 59 nM | 0.013 per unit amount of antibody | 0.047 per unit amount of antibody | 0.137 per unit amount of antibody | 0.196 per unit amount of antibody |

The remaining lines, values ahead:

| binding result [1] | Kd [2] | Kd [3] | Binding to Human CTLA4 [4] | Binding to Human CTLA4 [5] | Binding to Human CTLA4 [6] | Binding to Human CTLA4 [7] | Binder |
| --- | --- | --- | --- | --- | --- | --- | --- |
| – | 450 nM | 74 nM | 0.005 per unit amount of antibody | 0.03 per unit amount of antibody | 0.108 per unit amount of antibody | 0.17 per unit amount of antibody | 04H1208-G1m/04L1086-lam1 (antibody, human IgG1, lambda, V domains shown) VH: EVQLVESGGGLVKPGGSLRLSCAASGFTFSSKTMNWVRQAPGKGLEWVSSISTRSGYIYYARSVKGRFTISRDNAKNSLYLQMNSLRAEDTAVYYCARYGKREDMLWVFDYWGQGTLVTVSS VL: QSALTQPPSASGSPGQTVTISCDGPSTGVGDYNYVHWYQQHPGKAPKLMIYFTSKKPSGVPDRFSGSKSGNTASLTVSGLQAEDEADYFCQTYAAPLGPMFGGGTKLTVLG |
| – | 400 nM | 76 nM | 0.012 per unit amount of antibody | 0.041 per unit amount of antibody | 0.131 per unit amount of antibody | 0.192 per unit amount of antibody | 04H1077-G1m/04L1067-lam1 (antibody, human IgG1, lambda, V domains shown) VH: EVQLVESGGDLVKPGGGLRLSCAASGFTFSSRTMNWVRQAPGKGLEWVSSISTRSGYIYYAESVKGRFTISRDNAKNSLYLQMNSLRAEDTAVYYCARYGKREDMLWVFDYWGQGTLVTVSS VL: QSALTQPPSASGSPGQTVTISCDGPSTGVGDYNYVHWYQQHPGKAPKLMIYFTSKKPSGVPDRFSGSKSGNTASLTVSGLQAEDEADYFCSTYAAPLGPMFGGGTKLTVLG |
| – | 690 nM | 110 nM | 0.01 per unit amount of antibody | 0.031 per unit amount of antibody | 0.106 per unit amount of antibody | 0.181 per unit amount of antibody | 04H1077-G1m/04L1086-lam1 (antibody, human IgG1, lambda, V domains shown) VH: EVQLVESGGDLVKPGGGLRLSCAASGFTFSSRTMNWVRQAPGKGLEWVSSISTRSGYIYYAESVKGRFTISRDNAKNSLYLQMNSLRAEDTAVYYCARYGKREDMLWVFDYWGQGTLVTVSS VL: QSALTQPPSASGSPGQTVTISCDGPSTGVGDYNYVHWYQQHPGKAPKLMIYFTSKKPSGVPDRFSGSKSGNTASLTVSGLQAEDEADYFCQTYAAPLGPMFGGGTKLTVLG |
